Measurements as given in patent US20140256789.

How the values were obtained:
[1] = molecular target: p53 (wild-type, endogenous) (Homo sapiens) (UniProt P04637); experiment: cell_activity; settings: fold decrease in luciferase on p53 siRNA knockdown in HCT116
[2] = test system: p53 (wild-type, transfected); experiment: cell_activity; settings: luciferase reporter in H1299 with wtp53, fold above pGL3-basic

Sequence of p53 (wild-type, endogenous) (Homo sapiens) (P04637 whole entry): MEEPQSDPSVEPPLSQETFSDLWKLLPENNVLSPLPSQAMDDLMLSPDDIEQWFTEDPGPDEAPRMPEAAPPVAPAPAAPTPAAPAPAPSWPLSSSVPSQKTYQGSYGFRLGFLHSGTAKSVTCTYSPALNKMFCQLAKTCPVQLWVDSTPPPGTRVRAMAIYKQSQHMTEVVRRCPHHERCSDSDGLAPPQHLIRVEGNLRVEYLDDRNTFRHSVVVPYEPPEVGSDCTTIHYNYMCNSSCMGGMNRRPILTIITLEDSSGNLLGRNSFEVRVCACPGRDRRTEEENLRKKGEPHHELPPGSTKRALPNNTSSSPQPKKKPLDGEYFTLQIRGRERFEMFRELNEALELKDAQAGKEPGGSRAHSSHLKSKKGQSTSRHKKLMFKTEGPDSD

EST-Prom-luc (about 2 kb miR-34a promoter region with p53BS)
activity [1]: > 3 fold | activity [2]: 20 fold
